Literature values, collected in PMC2904371.

Target: Vinculin tail Vd5 (UniProt P18206)

Kd: 1 nM
Substance: Vinculin head Vd1-Vd4 (from UniProt P18206)
